{"source": "IntAct's records for PubMed 17210637", "molecular_target": "merl_human NF2 (UniProt P35240)", "sequence (P35240 whole entry)": "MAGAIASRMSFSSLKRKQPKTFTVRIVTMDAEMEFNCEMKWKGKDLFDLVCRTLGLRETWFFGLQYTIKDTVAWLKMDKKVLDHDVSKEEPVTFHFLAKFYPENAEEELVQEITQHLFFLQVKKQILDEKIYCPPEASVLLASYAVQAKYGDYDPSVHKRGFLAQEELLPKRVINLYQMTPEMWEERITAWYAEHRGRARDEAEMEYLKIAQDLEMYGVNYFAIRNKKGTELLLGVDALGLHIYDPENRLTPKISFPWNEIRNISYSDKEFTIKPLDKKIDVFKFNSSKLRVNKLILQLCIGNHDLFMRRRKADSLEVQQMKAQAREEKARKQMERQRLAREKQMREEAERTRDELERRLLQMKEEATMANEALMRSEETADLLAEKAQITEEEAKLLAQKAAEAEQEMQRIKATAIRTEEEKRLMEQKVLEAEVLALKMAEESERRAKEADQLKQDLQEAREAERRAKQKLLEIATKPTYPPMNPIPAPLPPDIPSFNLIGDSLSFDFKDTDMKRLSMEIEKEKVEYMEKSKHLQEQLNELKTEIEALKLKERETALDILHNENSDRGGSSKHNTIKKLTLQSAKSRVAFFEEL", "data": [{"substance": "GTP-binding protein 4 (Homo sapiens) (from UniProt Q9BZE4) R394A;K395A", "values": [{"measurement": "effect of a mutation on the interaction", "value": "decreasing interaction"}]}]}
